Laboratory results published in patent US20170247475A1 (Boehringer Ingelheim, published 2017).
Positions count from the first letter of the chain named. Values belong to the binder of their own block, whether it stands above or below them.

Experiments:
[1] = biological target: T1, recombinant human VEGF165 (human, UniProt P15692-4 27-191); assay: binding ELISA, coated rhVEGF165
T1 construct: also called hVEGF165; rhVEGF165

[2] = biological target: T1, recombinant human VEGF165; assay: ka1; SPR Biacore T100, hVEGF165 on chip, Two State Reaction model
Procedure: (§1) Samples are injected for 2 min and allowed to dissociate up to 20 min at a flow rate of 45 μI/min. In between sample injections, the chip surface is regenerated with 100 mM HCl. HBS-EP+(Hepes buffer pH7.4+EDTA) is used as running buffer. Binding curves are fitted using a Two State Reaction model by Biacore T100 Evaluation Software v2.0.1.
(§2) ^{(a)}Heterogeneous binding curve resulting in no 1:1 fit, curves are fitted using a Two State Reaction model by Biacore T100 Evaluation Software v2.0.1
Target sequence in this assay (P15692 other isoform, or with tags, fused parts or gaps limits assumed): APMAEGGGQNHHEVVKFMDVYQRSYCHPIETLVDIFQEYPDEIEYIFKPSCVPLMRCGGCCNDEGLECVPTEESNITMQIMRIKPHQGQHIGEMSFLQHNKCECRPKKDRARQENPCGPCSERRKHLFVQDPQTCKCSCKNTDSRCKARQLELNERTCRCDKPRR

[3] = biological target: T1, recombinant human VEGF165; assay: Biacore on VEGF165 (Example 5.5)
Procedure: as §1
Target sequence in this assay (P15692 other isoform, or with tags, fused parts or gaps limits assumed): as above

[4] = biological target: T1, recombinant human VEGF165; assay: kd1; SPR Biacore T100, hVEGF165 on chip, Two State Reaction model
Procedure: as §1, §2

[5] = biological target: T1, recombinant human VEGF165; assay: hVEGF165/hVEGFR2-Fc competition ELISA
Target sequence in this assay (P15692 other isoform, or with tags, fused parts or gaps limits assumed): as above

[6] = biological target: VEGF; assay: cell-based or functional assay
[7] = biological target: T1, recombinant human VEGF165; assay: VEGF165/VEGFR2 blocking AlphaScreen
Target sequence in this assay (P15692 other isoform, or with tags, fused parts or gaps limits assumed): as above

[8] = biological target: T1, recombinant human VEGF165; assay: Biacore, periplasmic extract on hVEGF165 chip, two phase decay fit
Target sequence in this assay (P15692 other isoform, or with tags, fused parts or gaps limits assumed): as above

[9] = biological target: T1, recombinant human VEGF165; assay: AlphaScreen competition, 0.05 nM hVEGF165 and 0.05 nM hVEGFR1-Fc; blocked: hVEGFR1-Fc
Target sequence in this assay (P15692 other isoform, or with tags, fused parts or gaps limits assumed): as above

[10] = biological target: T1, recombinant human VEGF165; assay: AlphaScreen competition, 0.05 nM hVEGF165 and 0.05 nM hVEGFR2-Fc; blocked: hVEGFR2-Fc
[11] = biological target: T1, recombinant human VEGF165; assay: AlphaScreen competition, 0.05 nM hVEGF165 and 0.05 nM hVEGFR1-Fc; blocked: hVEGFR1-Fc; remark: listed apart in the source
[12] = biological target: T1, recombinant human VEGF165; assay: as above; remark: listed apart in the source
[13] = biological target: T1, recombinant human VEGF165; assay: competition AlphaScreen, blocking of hVEGF165 binding to hVEGFR2-Fc
[14] = biological target: T1, recombinant human VEGF165; assay: AlphaScreen competition, 0.05 nM hVEGF165 and 0.05 nM hVEGFR2-Fc; blocked: hVEGFR2-Fc; remark: listed apart in the source
[15] = biological target: T1, recombinant human VEGF165; assay: as above; remark: listed apart in the source
[16] = biological target: T1, recombinant human VEGF165; assay: as above; remark: listed apart in the source
[17] = biological target: T1, recombinant human VEGF165; assay: KD1; SPR Biacore T100 on hVEGF165
[18] = biological target: T1, recombinant human VEGF165; assay: AlphaScreen competition, 0.05 nM hVEGF165 and 0.05 nM hVEGFR2-Fc; blocked: hVEGFR2-Fc; remark: listed apart in the source
[19] = biological target: T1, recombinant human VEGF165; assay: competition AlphaScreen, blocking of hVEGF165 binding to hVEGFR2-Fc; remark: listed apart in the source

EC50 [1]: 0.297 nM | kon [2]: 210000 M⁻¹ s⁻¹ | Kd [3]: 0.56 nM | koff [4]: 0.0086 s⁻¹ | % inhibition [5]: 100% | IC50 [5]: 2.1 nM | % inhibition, VEGF HUVEC proliferation assay [6]: 92% | IC50 (nM), VEGF HUVEC proliferation assay [6]: 0.68 nM | % inhibition [7]: 100% | IC50 [7]: 0.152 nM | % fast [8]: 12%
B1: VEGFBII23B04 (VHH)
VHH: EVQLVESGGGLVQTGDSLRLSCEVSGRTFSSYSMGWFRQAQGKEREFVVAISKGGYKYDSVSLEGRFTISKDNAKNTVYLQINSLKPEDTAVYYCASSRAYGSSRLRLADTYEYWGQGTQVTVSS
notes: also called VEGFBII23B4; VEGFBII23B04 (wt)

IC50 (read off the curve) [9]: ~0.3 nM | Kd [3]: 0.36 nM | IC50 (read off the curve) [10]: ~0.2 nM | % inhibition, VEGF HUVEC proliferation assay [6]: 92% | IC50 (nM), VEGF HUVEC proliferation assay [6]: 0.6 nM | IC50 (read off the curve) [11]: ~0.8 nM | IC50 (read off the curve) [12]: ~0.5 nM | IC50 (read off the curve) [13]: ~0.4 nM | IC50 (read off the curve) [14]: ~0.5 nM | IC50 (read off the curve) [15]: ~0.2 nM | IC50 (read off the curve) [16]: ~0.5 nM | % inhibition [7]: 100% | IC50 [7]: 0.143 nM | Kd [17]: 0.75 nM | IC50 (read off the curve) [18]: ~0.5 nM | IC50 (read off the curve) [19]: ~0.4 nM
B2: VEGFBII038 (VHH)
VHH: B1 VHH with E1D, T14P, D16G, E23A, V24A, Q41P, S60A, K71R, K86R, Q120L
notes: also called VEGFBII0038; VEGFBII00038
